Experimental data taken from PMC10921949, “Multivalent coiled-coil interactions enable full-scale centrosome assembly and strength” (The Journal of Cell Biology, 2024).

Target: the molecule itself
Experiment: mass photometry; 50 nM SPD-5(541–677) in PBS on a glass coverslip (TwoMP, Refeyn), alone or after 20 min with 20 nM PLK-1(KD) or PLK-1(CA); dimers seen down to 10 nM

Protein	stoichiometry N
SPD-5(541–677) (domain or fragment, C. elegans, UniProt P91349 541-677, looked up, Used alone and after incubation with kinase-dead PLK-1 (unphosphorylated); also called helical hairpin; source: Arctic Express bacteria, purified (Ni-NTA, Superdex 75 size exclusion)) SQSHIPILHDMQQILDSSAMFLEGQHDVAVNVEQMQEKMSQIREALARLFERLKSSAALFEEILERMGSSDPNADKIKKMKLAFETSINDKLNVSAILEAAEKDLHNMSLNFSILEKSIVSQAAEASRRFTIAPDAE	2
SPD-5(541–677) phosphorylated by PLK-1(CA) (domain or fragment, C. elegans, UniProt P91349 541-677, looked up, phosphorylated by PLK-1 (verified by gel migration shift and MS); sites of this sample not listed in the text, also called phosphorylated hairpin; source: Arctic Express bacteria, purified (Ni-NTA, Superdex 75 size exclusion); then incubated with PLK-1(CA)) SQSHIPILHDMQQILDSSAMFLEGQHDVAVNVEQMQEKMSQIREALARLFERLKSSAALFEEILERMGSSDPNADKIKKMKLAFETSINDKLNVSAILEAAEKDLHNMSLNFSILEKSIVSQAAEASRRFTIAPDAE	2
SPD-5(541–677) R592K (domain or fragment, C. elegans, UniProt P91349 541-677, looked up, source: purified) SQSHIPILHDMQQILDSSAMFLEGQHDVAVNVEQMQEKMSQIREALARLFEKLKSSAALFEEILERMGSSDPNADKIKKMKLAFETSINDKLNVSAILEAAEKDLHNMSLNFSILEKSIVSQAAEASRRFTIAPDAE	2
